In IntAct's records for PubMed 21139563:

B1: Importin-13 (Homo sapiens), O94829 (parent)
chain: MERREEQPGAAGAGAAPALDFTVENVEKALHQLYYDPNIENKNLAQKWLMQAQVSPQAWHFSWQLLQPDKVPEIQYFGASALHIKISRYWSDIPTDQYESLKAQLFTQITRFASGSKIVLTRLCVALASLALSMMPDAWPCAVADMVRLFQAEDSPVDGQGRCLALLELLTVLPEEFQTSRLPQYRKGLVRTSLAVECGAVFPLLEQLLQQPSSPSCVRQKVLKCFSSWVQLEVPLQDCEALIQAAFAALQDSELFDSSVEAIVNAISQPDAQRYVNTLLKLIPLVLGLQEQLRQAVQNGDMETSHGICRIAVALGENHSRALLDQVEHWQSFLALVNMIMFCTGIPGHYPVNETTSSLTLTFWYTLQDDILSFEAEKQAVYQQVYRPVYFQLVDVLLHKAQFPSDEEYGFWSSDEKEQFRIYRVDISDTLMYVYEMLGAELLSNLYDKLGRLLTSSEEPYSWQHTEALLYGFQSIAETIDVNYSDVVPGLIGLIPRISISNVQLADTVMFTIGALSEWLADHPVMINSVLPLVLHALGNPELSVSSVSTLKKICRECKYDLPPYAANIVAVSQDVLMKQIHKTSQCMWLMQALGFLLSALQVEEILKNLHSLISPYIQQLEKLAEEIPNPSNKLAIVHILGLLSNLFTTLDISHHEDDHEGPELRKLPVPQGPNPVVVVLQQVFQLIQKVLSKWLNDAQVVEAVCAIFEKSVKTLLDDFAPMVPQLCEMLGRMYSTIPQASALDLTRQLVHIFAHEPAHFPPIEALFLLVTSVTLTLFQQGPRDHPDIVDSFMQLLAQALKRKPDLFLCERLDVKAVFQCAVLALKFPEAPTVKASCGFFTELLPRCGEVESVGKVVQEDGRMLLIAVLEAIGGQASRSLMDCFADILFALNKHCFSLLSMWIKEALQPPGFPSARLSPEQKDTFSQQILRERVNKRRVKEMVKEFTLLCRGLHGTDYTADY

Variants of: B1
Details: with mgn_human MAGOH
In the case of K802E, the “effect of a mutation on the interaction” value is reported as “disrupting interaction”.
In the case of R803E, the “effect of a mutation on the interaction” value is reported as “disrupting interaction”.
